Among the targets are HLA-A*33:01; HLA-A*31:01; HLA-A*03:01; HLA-A*68:01; HLA-A*11:01.
Common to all, as to assay: IEDB peptide-MHC binding, purified MHC/competitive/radioactivity; filed as Kd, often an IC50 or EC50 that approximates it; ≥ and ≤ were set here for values at or beyond the usual limits of such assays
Setting [1] is: source organism: Vaccinia virus WR.
Where [2] appears, read: source organism: SARS coronavirus Tor2.
The mark [3] stands for this setting: source organism: Mammarenavirus guanaritoense.

The record followed here is the Immune Epitope Database (IEDB).

The Kd is the free concentration of one partner at which half of the binding sites on the other are occupied at equilibrium, for simple one-to-one binding.

With KLQARNIQK, the Kd was found to be 0.927 µM in the assay with HLA-A*33:01 (setting [1]); 0.0135 µM in the assay with HLA-A*31:01 (setting [1]); 0.00803 µM with HLA-A*03:01 (setting [1]); 0.169 µM with HLA-A*68:01 (setting [1]); 0.0178 µM with HLA-A*11:01 (setting [1]).
Take KVSAQNISFK: the Kd with HLA-A*33:01 (setting [1]) is 3.32 µM; with HLA-A*31:01 (setting [1]), 0.433 µM; in the assay with HLA-A*03:01 (setting [1]) it was 5.07 µM; with HLA-A*68:01 (setting [1]), 3.38 µM; with HLA-A*11:01 (setting [1]), 0.131 µM.
Taken in the same sequence, the figures for LAIKNYYRK were 1.44 µM, 0.783 µM, not below 45.7 µM, 0.0127 µM and 0.0759 µM.
As to LFLLFLEITY, the Kd with HLA-A*33:01 (setting [1]) turned out to be 9.64 µM; with HLA-A*31:01 (setting [1]), 3.46 µM; with HLA-A*03:01 (setting [1]), 1.96 µM; with HLA-A*68:01 (setting [1]), 0.274 µM; in the assay with HLA-A*11:01 (setting [1]), 3.72 µM.
On to LLFADINGK, for which the Kd with HLA-A*33:01 (setting [2]) was not below 50.9 µM; in the assay with HLA-A*31:01 (setting [2]), 2.56 µM; in the assay with HLA-A*03:01 (setting [2]), 0.0308 µM; with HLA-A*68:01 (setting [2]) it was 0.12 µM; in the assay with HLA-A*11:01 (setting [2]) it was 0.00881 µM.
Take LLGDSDSVAK: the dissociation constant (Kd) with HLA-A*33:01 (setting [1]) is not below 70 µM; in the assay with HLA-A*31:01 (setting [1]), 3.58 µM; in the assay with HLA-A*03:01 (setting [1]), 0.203 µM; with HLA-A*68:01 (setting [1]) it was 10.9 µM; in the assay with HLA-A*11:01 (setting [1]), 0.584 µM.
Regarding LTALLSCIR, the Kd is 1.1 µM with HLA-A*33:01 (setting [1]); 0.244 µM with HLA-A*31:01 (setting [1]); not below 78 µM in the assay with HLA-A*03:01 (setting [1]); 0.00766 µM with HLA-A*68:01 (setting [1]); 0.914 µM with HLA-A*11:01 (setting [1]).
Take LTNKHCLNNY: the Kd with HLA-A*33:01 (setting [1]) is not below 66 µM; with HLA-A*31:01 (setting [1]), 4.42 µM; in the assay with HLA-A*03:01 (setting [1]), 1.38 µM; in the assay with HLA-A*68:01 (setting [1]), not below 21.2 µM; with HLA-A*11:01 (setting [1]) it was 2.07 µM.
As for MIIGHIGHHY, the Kd was not below 55.4 µM in the assay with HLA-A*33:01 (setting [1]); 0.151 µM in the assay with HLA-A*31:01 (setting [1]); 0.047 µM in the assay with HLA-A*03:01 (setting [1]); 0.0193 µM with HLA-A*68:01 (setting [1]); 0.103 µM in the assay with HLA-A*11:01 (setting [1]).
In the case of MMFINSTCY, the Kd with HLA-A*33:01 (setting [1]) amounted to 3.93 µM; with HLA-A*31:01 (setting [1]), 0.129 µM; with HLA-A*03:01 (setting [1]) it was 0.0212 µM; with HLA-A*68:01 (setting [1]), 0.145 µM; in the assay with HLA-A*11:01 (setting [1]), 0.159 µM.
For MMNRDKIPIY, the Kd in the assay with HLA-A*33:01 (setting [1]) was not below 70 µM; with HLA-A*31:01 (setting [1]), 10.4 µM; in the assay with HLA-A*03:01 (setting [1]) it was 1.03 µM; in the assay with HLA-A*68:01 (setting [1]) it was not below 70.2 µM; in the assay with HLA-A*11:01 (setting [1]), 3.8 µM.
Taken in the same sequence, the figures for MSHVKSVTK were 1.93 µM, 0.0201 µM, 0.0186 µM, 0.009 µM and 0.00805 µM.
Consider MSMGDIITY, for which the Kd stood at 13.3 µM in the assay with HLA-A*33:01 (setting [1]); 8.57 µM in the assay with HLA-A*31:01 (setting [1]); 0.134 µM in the assay with HLA-A*03:01 (setting [1]); 0.00185 µM in the assay with HLA-A*68:01 (setting [1]); 0.00567 µM with HLA-A*11:01 (setting [1]).
As for NAPIKEFKAK, the Kd is 3.31 µM with HLA-A*33:01 (setting [1]); 8.83 µM with HLA-A*31:01 (setting [1]); 15.6 µM with HLA-A*03:01 (setting [1]); 0.187 µM with HLA-A*68:01 (setting [1]); not below 27.7 µM with HLA-A*11:01 (setting [1]).
For NFFTELENK, the Kd is 11.3 µM in the assay with HLA-A*33:01 (setting [1]); 7.32 µM with HLA-A*31:01 (setting [1]); not below 69.5 µM with HLA-A*03:01 (setting [1]); 1.28 µM with HLA-A*68:01 (setting [1]); 1.69 µM with HLA-A*11:01 (setting [1]).
With NIILSKIPY, the Kd with HLA-A*33:01 (setting [1]) was 9.76 µM; with HLA-A*31:01 (setting [1]) it was 14.4 µM; with HLA-A*03:01 (setting [1]), 1.18 µM; in the assay with HLA-A*68:01 (setting [1]), 0.778 µM; with HLA-A*11:01 (setting [1]), 0.552 µM.
Consider NISIIVLFQR, for which the dissociation constant (Kd) with HLA-A*33:01 (setting [1]) amounted to 1.4 µM; in the assay with HLA-A*31:01 (setting [1]), 0.0336 µM; with HLA-A*03:01 (setting [1]), 0.907 µM; with HLA-A*68:01 (setting [1]), 0.00384 µM; with HLA-A*11:01 (setting [1]), 0.67 µM.
Turning to NIVTFINDY, the Kd in the assay with HLA-A*33:01 (setting [1]) is not below 77.7 µM; with HLA-A*31:01 (setting [1]) it was 14.6 µM; with HLA-A*03:01 (setting [1]), not below 78 µM; with HLA-A*68:01 (setting [1]) it was 0.535 µM; with HLA-A*11:01 (setting [1]), not below 45.9 µM.
For NLDPDNKMSY, the Kd in the assay with HLA-A*33:01 (setting [1]) is not below 65.8 µM; in the assay with HLA-A*31:01 (setting [1]) it was not below 41.3 µM; with HLA-A*03:01 (setting [1]) it was 0.95 µM; with HLA-A*68:01 (setting [1]), 1.46 µM; with HLA-A*11:01 (setting [1]), 0.582 µM.
Taken in the same sequence, the figures for NTMCTEETKR were 4.21 µM, 13.3 µM, not below 32.2 µM, 0.0178 µM and 6.41 µM.
On to NVKKKNEGK, for which the dissociation constant (Kd) is 17.6 µM with HLA-A*33:01 (setting [1]); not below 20.4 µM with HLA-A*31:01 (setting [1]); 6.52 µM in the assay with HLA-A*03:01 (setting [1]); 0.142 µM with HLA-A*68:01 (setting [1]); not below 29.7 µM with HLA-A*11:01 (setting [1]).
Consider NYVHCFRKPH, for which the Kd was 1.43 µM with HLA-A*33:01 (setting [3]); 12 µM with HLA-A*31:01 (setting [3]); not below 70 µM with HLA-A*03:01 (setting [3]); not below 70.1 µM with HLA-A*68:01 (setting [3]); not below 69.7 µM with HLA-A*11:01 (setting [3]).
Consider PVSMTYLYNK, for which the Kd was not below 70 µM with HLA-A*33:01 (setting [1]); 6.15 µM with HLA-A*31:01 (setting [1]); 1.19 µM in the assay with HLA-A*03:01 (setting [1]); 12.9 µM in the assay with HLA-A*68:01 (setting [1]); 0.107 µM in the assay with HLA-A*11:01 (setting [1]).
With QFANVISKIY, the Kd in the assay with HLA-A*33:01 (setting [1]) stood at 1.2 µM; with HLA-A*31:01 (setting [1]), 1.14 µM; with HLA-A*03:01 (setting [1]), 3.39 µM; in the assay with HLA-A*68:01 (setting [1]), 1.95 µM; with HLA-A*11:01 (setting [1]), 8.66 µM.
